Test results taken from patent US20250127938A1, “THERAGNOSTIC FOLATE CONJUGATES” (Merck Patent GmbH, priority 2022, published 2025).
Blank lines part the entries; values can stand above or below the molecule they belong to.

Legend:
mouse albumin = tested on: T1, mouse albumin; assay: in vitro; format: in vitro ADME; details: plasma
T1 construct: tissue Rockland Immunochemicals, Inc., USA; host or cells: mouse blood plasma
Procedure: (§1) Albumin-binding properties were determined in mouse and human blood plasma. The albumin-binding properties of the folate radioconjugates of the disclosure in mouse blood plasma (Rockland Immunochemicals, Inc., USA) and human blood plasma (Stiftung Blutspende SRK Aargau-Solothurn, Switzerland) were determined using an ultrafiltration method (Deberle, L. M. et al., Molecules 2020, 25, (11)). The amount of serum albumin in mouse (MSA) and human (HSA) blood plasma was defined as 550 μM and 800 μM, respectively, based on measurements using a dry chemistry analyzer (DRI-CHEM 4000i, FUJIFILM, Japan). The folate radioconjugates of the disclosure (50 MBq/nmol, ca. 300 kBq, 0.006 nmol in 15 μL) were added to samples of mouse and human blood plasma (150 μL), followed by incubation of the samples at 37° C. for 30 min. The samples were loaded on Amicon centrifugal filters (cut-off of 10 kDa; Merck Millipore) followed by centrifugation (14,000 rcf, 30 min, 4° C.) to allow the separation of the plasma-bound from the plasma-unbound (free) fractions of each sample. The inserts of the filter devices were inverted and centrifuged at 200 rcf for 3 min to recover the protein-bound fraction. The activity of the protein-bound fraction as well as the activity in the filtrate and in the filter unit were measured separately in a gamma-counter (Perkin Elmer, Wallac Wizard 1480). The percentage of radioconjugate bound to mouse and human albumin, respectively, was set in relation to the total activity measured (Table 4).

human albumin = tested on: T2, human albumin; assay: in vitro; format: in vitro ADME; details: plasma
T2 construct: tissue Stiftung Blutspende SRK Aargau-Solothurn, Switzerland; host or cells: human blood plasma
Procedure: as §1

[1] = format: physicochemical; details: pH 7.4
Procedure: The n-octanol/PBS distribution coefficients (log D values) were determined for each folate radioconjugate of the disclosure in order to assess their hydrophilic/hydrophobic properties. The log D values of the folate radioconjugates of the disclosure (50 MBq/nmol) were determined as previously reported, after dilution in PBS pH 7.4 to obtain an activity concentration of 10 MBq/500 μL. A sample of each radiofolate (ca. 0.5 MBq, 25 μL, 0.01 nmol) was added to a mixture of 1475 μL PBS pH 7.4 and 1500 μL n-octanol. The vials were vortexed vigorously for 1 min followed by centrifugation for 6 min at 2500 rpm for phase separation. An aliquot was taken from each phase and measured in a gamma-counter (Perkin Elmer, Wallac Wizard 1480). The distribution coefficients were calculated as the logarithm of the ratio of counts per minute (cpm) measured in the n-octanol phase relative to the cpm measured in the PBS phase. The results were listed as mean±SD of the data obtained from 3 independent experiments, each performed with five replicates.

[2] = Radiolytic stability of the radioconjugates (HPLC); format: physicochemical; details: room temperature, PBS pH 7.4, 100 MBq/500 μL, relative to value at t0
Procedure: Radiolytic stability: After performing quality control of the radioconjugates (50 MBq/nmol) using HPLC (t0=0 h), the radioconjugates were diluted in PBS pH 7.4 to obtain an activity concentration of 100 MBq/500 μL. The radioconjugate dilutions were incubated at room temperature. The integrity of the radioconjugates was assessed after a 4 h and 24 h, respectively, using HPLC. The HPLC chromatograms were analyzed by determination of the peak area of the radiolabeled product, the released lutetium-177 as well as the degradation products of unknown structure. The quantity of the intact product was expressed as the percentage of the sum of integrated peak areas of the entire chromatogram and set into relation to the original value determined at to (radiochemical purity >95% set as 100%).

[3] = target: T3, FR (folate receptor) on IGROV-1 cells (Homo sapiens, UniProt P15328); assay: FR-binding affinity (KD) on FR-positive IGROV-1 cells; details: 1 h at 4° C., average of 3 experiments
T3 construct: FR-positive IGROV-1 cells (human ovarian carcinoma cell line); endogenous in cells; host or cells: IGROV-1 human ovarian carcinoma cells (provided by Dr. Gerrit Janssen, Free University Medical Center Amsterdam)
T3 sequence (P15328 25-234): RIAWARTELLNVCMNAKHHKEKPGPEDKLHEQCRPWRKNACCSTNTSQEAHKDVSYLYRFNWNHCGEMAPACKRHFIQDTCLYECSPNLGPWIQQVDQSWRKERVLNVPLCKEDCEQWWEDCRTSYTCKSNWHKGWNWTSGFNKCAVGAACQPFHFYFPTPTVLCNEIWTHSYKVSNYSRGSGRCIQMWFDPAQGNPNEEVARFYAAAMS
Procedure: The determination of the KD values was performed as previously reported (Deberle, L. M. et al; Bioconj Chem 2021, 32, p. 1617). FR-positive IGROV-1 cells (human ovarian carcinoma cell line, kindly provided by Dr. […] Janssen, Free University Medical Center Amsterdam, The Netherlands) were seeded in 48-well plates (2.5×10^5 cells/well) in 500 μL FFRPMI medium with supplements. The cells were incubated at 37° C. and 5% CO2 to allow cell adhesion overnight. The experiment was performed on ice using ice-cold medium and buffer solutions. After removal of the supernatant, the cells were rinsed once with PBS prior to the addition of FFRPMI medium without supplements (450 μL/well). The respective folate radioconjugate of the disclosure (20 MBq/nmol) was added to each well at variable concentrations (in the range of 0.1 to 500 nM, 50 μL per well). […] The IGROV-1 tumor cells were incubated for 1 h at 4° C. on a shaker, followed by removal of the supernatants and rinsing the cells twice with PBS. After lysis of the cells with NaOH solution (1 M, aq., 500 μL), the samples were counted for activity in a γ-counter (Wallac Wizard 1480, Perkin Elmer). The counts per minute (cpm) of the specific binding (determined by subtracting the cpm of the unspecific binding from the cpm of total binding), were plotted against the molar concentration of the added folate radioconjugates of the disclosure. […]

[4] = target: folate receptor-alpha (FR) (Homo sapiens, UniProt P15328); details: background statement; cited from earlier work
Chain of folate receptor-alpha (FR) (P15328 25-234, species assumed): as the sequence (P15328 25-234) above

Kd [3]: 4.6 nM
SMILES: CN1c2c(nc(N)[nH]c2=O)NC[C@@H]1CNc1ccc(C(=O)N[C@@H](CCC(=O)N[C@@H](CCCCNC(=O)CN2CCN(CC(=O)O)CCN(CC(=O)O)CCN(CC(=O)O)CC2)C(=O)N[C@@H](CCCCNC(=O)CCCCc2ccc(I)cc2)C(=O)O)C(=O)O)cc1 [[^177Lu]Lu-6S-RedFol-24, metal not drawn]
fraction unbound at 30 min, 0.036 µM (mouse albumin): 0.26
fraction unbound at 30 min, 0.036 µM (human albumin): 0.14
logD [1]: -3.1 ± 0.1
Intact radiolabeled product [%] ([2]; 4 h): ≥99%
Intact radiolabeled product [%] ([2]; 24 h): ≥99%

Kd [3]: 5.6 nM
SMILES: CN1c2c(nc(N)[nH]c2=O)NC[C@H]1CNc1ccc(C(=O)N[C@@H](CCC(=O)N[C@@H](CCCCNC(=O)CN2CCN(CC(=O)O)CCN(CC(=O)O)CCN(CC(=O)O)CC2)C(=O)N[C@@H](CCCCNC(=O)CCCCc2ccc(I)cc2)C(=O)O)C(=O)O)cc1 [[^177Lu]Lu-6R-RedFol-24, metal not drawn]
fraction unbound at 30 min, 0.036 µM (mouse albumin): 0.27
fraction unbound at 30 min, 0.036 µM (human albumin): 0.06
logD [1]: -3.5 ± 0.2
Intact radiolabeled product [%] ([2]; 4 h): ≥99%
Intact radiolabeled product [%] ([2]; 24 h): ≥99%

SMILES: CN1c2c(nc(N)[nH]c2=O)NCC1CNc1ccc(C(=O)N[C@@H](CCC(=O)O)C(=O)O)cc1 (stereo partly shown) [5-methyltetrahydrofolic acid]
FR affinity (KD) [4]: nanomolar range
